Data published in US12281155.

What was measured:
Settings in all cases: remark: other sources report otherwise
[1] = target: T1, recombinant SARS-CoV-2 Spike RBD domain, Delta variant (SARS-CoV-2); test: competition ELISA, blocking of RBD binding to ACE2 ectodomain
[2] = target: T2, recombinant SARS-CoV-2 Spike RBD domain, BA.4/5 variant (SARS-CoV-2); test: as above
[3] = target: T3, recombinant SARS-CoV-2 Spike RBD domain, BA.2 variant (SARS-CoV-2); test: as above
[4] = target: T1, recombinant SARS-CoV-2 Spike RBD …; test: ELISA on coated RBD
[5] = target: T2, recombinant SARS-CoV-2 Spike RBD …; test: ELISA on coated RBD
[6] = target: T3, recombinant SARS-CoV-2 Spike RBD …; test: ELISA on coated RBD

B1: SPK002 antibody (parental version Cv2.3194 described in WO 2022/228827) (antibody, V domains shown)
VH: EVQLVESGGGLIQPGGSLRLSCAASGITVTSNYMSWVRQAPGKGLEWVSVIYPGGSTFYADSVKGRFTISRDNSKNTLYLQMNSLRAEDTAVYYCARDLVVYGMDVWGQGTTVTVS
VL: EIVLTQSPGTLSLSPGERATLSCRASQSVSSSYLAWYQQKPGQAPRLLIYGASSRATGIPGRFSGSGSGTDFTLTISRLEPEDFAIYYCQQGVTFGGGTKVEIK
Binder B1 has a Blocking % [1] of 93%, a Blocking % [2] of 92% and a Blocking % [3] of 94%. The Binding AUC [4] was 34, the Binding AUC [5] was 33 and the Binding AUC [6] was 33.
